23 molecules from PMC9352680, “A comprehensive thermodynamic model for RNA binding by the Saccharomyces cerevisiae Pumilio protein PUF4” can be followed below.

Residue numbers refer to the chain shown, from its start. In names and notes the source's numbering stands. A value given as a limit tells only on which side of the number the result lay.

The labels stand for the following.
T1: PUF4 RNA-binding domain (Saccharomyces cerevisiae, UniProt P25339 537-888)
T1 sequence: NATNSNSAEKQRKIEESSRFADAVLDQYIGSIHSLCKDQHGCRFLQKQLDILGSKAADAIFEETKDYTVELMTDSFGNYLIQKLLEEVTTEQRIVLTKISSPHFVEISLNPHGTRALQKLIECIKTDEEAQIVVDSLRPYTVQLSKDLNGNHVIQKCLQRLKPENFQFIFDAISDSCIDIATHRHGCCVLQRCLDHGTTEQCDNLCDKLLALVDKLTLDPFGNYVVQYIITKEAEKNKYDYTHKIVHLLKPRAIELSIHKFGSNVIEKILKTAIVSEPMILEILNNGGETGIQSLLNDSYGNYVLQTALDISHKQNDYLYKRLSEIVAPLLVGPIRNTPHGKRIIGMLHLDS

B1: Ic_S4_P4E.1_K4.1_C4.1_H4.1_A4.1_[A6G]_F4.1_[T8G]_[A9G]_T4.1 (ssRNA)
RNA: UUUGACAACUGAUCGUUCUUUCUUGUAUGUGGUUCUUUCUCGAUCAGUUGUCUUU
B2: Ic_S4_P4E.1_K4.1_C4.1_H4.1_A4.1_[A6C]_[T7C]_F4.1_[T8C]_[A9C]_T4.1 (ssRNA)
RNA: B1 RNA with G29C, U30C, G31C, G32C
B3: Ic_S4_P4E.1_K4.1_C4.1_H4.1_A4.1_[A6G]_F4.1_[T8A]_T4.1 (ssRNA)
RNA: B1 RNA with G31A, G32A
B4: Ic_S4_P4E.1_K4.1_C4.1_H4.1_A4.1_[A6G]_F4.1_[T8A]_[A9G]_T4.1 (ssRNA)
RNA: B1 RNA with G31A
B5: Ic_S4_P4E.1_K4.1_C4.1_H4.1_A4.1_[A6C]_F4.1_[T8G]_[A9G]_T4.1 (ssRNA)
RNA: B1 RNA with G29C
B6: Ic_S4_P4E.1_K4.1_C4.1_H4.1_A4.1_[A6C]_[T7A]_F4.1_[T8A]_[A9C]_T4.1 (ssRNA)
RNA: B1 RNA with G29C, U30A, G31A, G32C
B7: Ic_S4_P4E.1_K4.1_C4.1_H4.1_A4.1_[A6C]_[T7C]_F4.1_[T8A]_T4.1 (ssRNA)
RNA: B1 RNA with G29C, U30C, G31A, G32A
B8: Ic_S4_P4E.1_K4.1_C4.1_H4.1_A4.1_[A6C]_[T7C]_F4.1_[T8C]_[A9G]_T4.1 (ssRNA)
RNA: B1 RNA with G29C, U30C, G31C
B9: Ic_S4_P4E.1_K4.1_C4.1_H4.1_A4.1_[A6C]_[T7G]_F4.1_[T8G]_[A9C]_T4.1 (ssRNA)
RNA: B1 RNA with G29C, U30G, G32C
B10: Ic_S4_P4E.1_K4.1_C4.1_H4.1_A4.1_[A6C]_[T7A]_F4.1_[T8A]_[A9T]_T4.1 (ssRNA)
RNA: B1 RNA with G29C, U30A, G31A, G32U
B11: Ic_S4_P4E.1_K4.1_C4.1_H4.1_A4.1_[A6C]_[T7A]_F4.1_[A9G]_T4.1 (ssRNA)
RNA: B1 RNA with G29C, U30A, G31U
B12: Ic_S4_P4E.1_K4.1_C4.1_H4.1_A4.1_[A6C]_[T7C]_F4.1_[A9G]_T4.1 (ssRNA)
RNA: B1 RNA with G29C, U30C, G31U
B13: Ic_S4_P4E.1_K4.1_C4.1_H4.1_A4.1_[A6G]_F4.1_[T8C]_[A9T]_T4.1 (ssRNA)
RNA: B1 RNA with G31C, G32U
B14: Ic_S4_P4E.1_K4.1_C4.1_H4.1_A4.1_[A6C]_[T7C]_F4.1_[T8G]_[A9T]_T4.1 (ssRNA)
RNA: B1 RNA with G29C, U30C, G32U
B15: Ic_S4_P4E.1_K4.1_C4.1_H4.1_A4.1_[A6G]_F4.1_[T8C]_[A9C]_T4.1 (ssRNA)
RNA: B1 RNA with G31C, G32C
B16: Ic_S4_P4E.1_K4.1_C4.1_H4.1_A4.1_[A6G]_F4.1_[T8A]_[A9C]_T4.1 (ssRNA)
RNA: B1 RNA with G31A, G32C
B17: Ic_S4_P4E.1_K4.1_C4.1_H4.1_A4.1_[A6C]_F4.1_[T8G]_[A9C]_T4.1 (ssRNA)
RNA: B1 RNA with G29C, G32C
B18: Ic_S4_P4E.1_K4.1_C4.1_H4.1_A4.1_[A6C]_F4.1_[T8C]_[A9G]_T4.1 (ssRNA)
RNA: B1 RNA with G29C, G31C
B19: Ic_S4_P4E.1_K4.1_C4.1_H4.1_A4.1_[A6C]_[T7G]_F4.1_[T8A]_[A9C]_T4.1 (ssRNA)
RNA: B1 RNA with G29C, U30G, G31A, G32C
B20: Ic_S4_P4E.1_K4.1_C4.1_H4.1_A4.1_[A6C]_[T7G]_F4.1_[T8C]_[A9C]_T4.1 (ssRNA)
RNA: B1 RNA with G29C, U30G, G31C, G32C

The target of this series is T1, PUF4 RNA-binding domain. As to the kind of experiment: Mg; RNA-MaP; 20 mM Na-HEPES pH 7.4, 30 mM KOAc, 0.75 mM MgCl2, 0.1% Tween-20, 5% glycerol, 0.1 mg/mL BSA, 2 mM DTT; 25 C; 0.0125-409.6 nM protein. The settings on record: tags: N-His6-TEV cleaved; C-SNAP kept, Cy3B-labelled; label: tethered on chip by stalled RNA polymerase.
UCUCUUUGUAUAGCAUCUCUU (ssRNA) [Ib_S1_P4E.1_K4.1_C4.1_H4.1_A4.1_[T7G]_F4.1_[T8C]_T4.1] came in with a Kd of 26.2 nM. Under UCUCUUUGUAUAACAUCUCUU (ssRNA) [Ib_S1_P4E.1_K4.1_C4.1_H4.1_A4.1_[T7A]_F4.1_[T8C]_T4.1] stands 11.8 nM; under UCUCUUUGUAUACCAUCUCUU (ssRNA) [Ib_S1_P4E.1_K4.1_C4.1_H4.1_A4.1_[T7C]_F4.1_[T8C]_T4.1], 13.1 nM; under B1, 180 nM.

On to B2, for which the Kd is 403 nM. Then B3, with 70.5 nM.

In the case of B4, the Kd was 186 nM. In turn, B5 displayed a Kd of 89.5 nM. In turn, B6 gave a Kd of 477 nM. B7: the Kd worked out at 577 nM.

B8 had a Kd of 449 nM. Consider B9, for which the Kd was over 2300 nM. Then B10, with 50.5 nM; and B11, with 10.1 nM; and B12, with 29.9 nM. B13 displayed a Kd of 74.2 nM. Against the preceding molecule, the Kd is about 2.5-fold higher.

For B14, the Kd was found to be 172 nM. Then B15, with 36.4 nM; and B16, with 85 nM. As to B17, the Kd is 52 nM. Then B18, with 31.1 nM.

As for B19, the Kd is over 2300 nM. Then B20, with 994 nM.
